# Measured values: article PMC9482650, “Quantitative fragmentomics allow affinity mapping of interactomes” (Nature Communications, 2022)
# T1: MPDZ_5, O75970
# T1 sequence (O75970 695-796, limits assumed, looked up): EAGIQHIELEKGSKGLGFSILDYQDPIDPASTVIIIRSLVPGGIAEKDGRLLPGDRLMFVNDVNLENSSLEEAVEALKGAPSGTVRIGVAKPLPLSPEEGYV
# T2: PDZD7_3, Q9H5P4
# T2 sequence (Q9H5P4 857-944, limits assumed, looked up): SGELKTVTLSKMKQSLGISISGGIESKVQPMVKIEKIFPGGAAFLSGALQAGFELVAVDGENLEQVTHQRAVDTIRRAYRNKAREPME
# T3: GRIP1_5, Q9Y3R0
# T3 sequence (Q9Y3R0 568-668, limits assumed, looked up): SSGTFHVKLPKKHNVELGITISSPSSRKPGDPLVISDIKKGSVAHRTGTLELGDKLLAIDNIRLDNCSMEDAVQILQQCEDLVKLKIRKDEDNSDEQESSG
# T4: GRIP1_4, Q9Y3R0
# T4 sequence (Q9Y3R0 467-571, limits assumed, looked up): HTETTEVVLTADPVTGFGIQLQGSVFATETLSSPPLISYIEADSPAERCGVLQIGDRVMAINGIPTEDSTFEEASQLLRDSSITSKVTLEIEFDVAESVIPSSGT
# T5: DFNB31_3, Q9P202
# T5 sequence (Q9P202 811-907, limits assumed, looked up): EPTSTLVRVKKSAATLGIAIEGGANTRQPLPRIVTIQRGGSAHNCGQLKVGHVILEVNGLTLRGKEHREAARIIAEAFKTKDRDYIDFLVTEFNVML
# T6: SIPA1L2, Q9P2F8
# T6 sequence (Q9P2F8 945-1036, limits assumed, looked up): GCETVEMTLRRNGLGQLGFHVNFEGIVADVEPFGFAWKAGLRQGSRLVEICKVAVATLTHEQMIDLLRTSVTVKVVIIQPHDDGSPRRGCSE
# T7: FRMPD1, Q5SYB0
# T7 sequence (Q5SYB0 52-145, limits assumed, looked up): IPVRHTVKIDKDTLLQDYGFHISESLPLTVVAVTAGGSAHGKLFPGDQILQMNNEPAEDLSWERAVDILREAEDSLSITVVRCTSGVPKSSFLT
# T8: PARD3B_1, Q8TEW8
# T8 sequence (Q8TEW8 196-299, limits assumed, looked up): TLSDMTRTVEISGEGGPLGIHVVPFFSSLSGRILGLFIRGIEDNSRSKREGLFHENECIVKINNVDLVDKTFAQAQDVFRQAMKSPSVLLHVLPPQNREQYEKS
# T9: LNX2_2, Q8N448
# T9 sequence (Q8N448 334-432, limits assumed, looked up): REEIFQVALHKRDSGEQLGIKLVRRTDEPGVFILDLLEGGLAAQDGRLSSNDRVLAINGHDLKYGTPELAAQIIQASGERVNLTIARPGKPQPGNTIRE
# T10: SHANK1, Q9Y566
# T10 sequence (Q9Y566 658-767, limits assumed, looked up): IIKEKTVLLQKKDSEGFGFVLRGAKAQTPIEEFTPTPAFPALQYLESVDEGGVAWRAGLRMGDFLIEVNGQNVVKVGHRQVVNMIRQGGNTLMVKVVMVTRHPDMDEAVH
# T11: APBA1_2, Q02410
# T11 sequence (Q02410 742-832, limits assumed, looked up): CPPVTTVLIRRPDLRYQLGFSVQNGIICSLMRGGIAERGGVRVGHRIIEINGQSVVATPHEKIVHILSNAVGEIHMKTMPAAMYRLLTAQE
# Legend:
# Assay in all cases: holdup assay
# Set-up in all cases: key: below the threshold = too weak to quantify, mostly under pKd 3.1 to 4
# Details in all cases: plain residues with an end cap or a label only (N-terminal biotin on a linker: ahx)
# [1] = target: T1, MPDZ_5, O75970
# [2] = target: MAGI2_3, Q86UL8
# [3] = target: FRMPD3, Q5JV73
# [4] = target: MAGI3_2, Q5TCQ9
# [5] = target: T2, PDZD7_3, Q9H5P4
# [6] = target: T3, GRIP1_5, Q9Y3R0
# [7] = target: Inadl_1, Q8NI35
# [8] = target: DLG2_3, Q15700
# [9] = target: PDZRN4_1, Q6ZMN7
# [10] = target: T4, GRIP1_4, Q9Y3R0
# [11] = target: FRMPD2_1, Q68DX3
# [12] = target: PTPN3, P26045
# [13] = target: T5, DFNB31_3, Q9P202
# [14] = target: FRMPD4, Q14CM0
# [15] = target: T6, SIPA1L2, Q9P2F8
# [16] = target: T7, FRMPD1, Q5SYB0
# [17] = target: T8, PARD3B_1, Q8TEW8
# [18] = target: LNX1_3, Q8TBB1
# [19] = target: NHERF4_2, Q86UT5
# [20] = target: T9, LNX2_2, Q8N448
# [21] = target: Inadl_6, Q8NI35
# [22] = target: PDLIM1, O00151
# [23] = target: T10, SHANK1, Q9Y566
# [24] = target: Inadl_4, Q8NI35
# [25] = target: T11, APBA1_2, Q02410
# [26] = target: NOS1, P29475
# [27] = target: Inadl_10, Q8NI35
# Sequence of Inadl_10, Q8NI35 (Q8NI35 1673-1763): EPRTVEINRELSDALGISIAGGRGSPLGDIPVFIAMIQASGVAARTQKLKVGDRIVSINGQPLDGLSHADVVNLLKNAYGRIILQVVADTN
# Sequence of PDZRN4_1, Q6ZMN7 (Q6ZMN7 213-318): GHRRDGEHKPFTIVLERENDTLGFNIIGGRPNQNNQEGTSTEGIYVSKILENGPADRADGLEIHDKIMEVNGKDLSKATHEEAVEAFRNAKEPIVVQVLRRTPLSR
# Sequence of Inadl_4, Q8NI35 (Q8NI35 547-651): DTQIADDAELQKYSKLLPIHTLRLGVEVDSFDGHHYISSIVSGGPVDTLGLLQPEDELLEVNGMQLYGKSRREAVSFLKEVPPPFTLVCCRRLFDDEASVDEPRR
# Sequence of Inadl_1, Q8NI35 (Q8NI35 113-229): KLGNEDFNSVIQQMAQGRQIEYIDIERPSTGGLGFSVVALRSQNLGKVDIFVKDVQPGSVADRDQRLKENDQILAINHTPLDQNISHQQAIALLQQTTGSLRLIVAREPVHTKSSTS
# Sequence of FRMPD2_1, Q68DX3 (Q68DX3 770-861): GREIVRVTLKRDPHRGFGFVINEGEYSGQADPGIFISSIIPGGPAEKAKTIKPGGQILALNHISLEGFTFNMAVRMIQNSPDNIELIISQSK
# Sequence of MAGI3_2, Q5TCQ9 (Q5TCQ9 398-503): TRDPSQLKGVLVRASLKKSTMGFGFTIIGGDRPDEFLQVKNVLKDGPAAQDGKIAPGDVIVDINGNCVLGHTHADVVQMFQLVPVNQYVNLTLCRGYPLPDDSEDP
# Sequence of NHERF4_2, Q86UT5 (Q86UT5 220-308): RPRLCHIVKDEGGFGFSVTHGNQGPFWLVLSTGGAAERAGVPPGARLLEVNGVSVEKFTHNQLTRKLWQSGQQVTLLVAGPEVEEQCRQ
# Sequence of FRMPD3, Q5JV73 (Q5JV73 12-100): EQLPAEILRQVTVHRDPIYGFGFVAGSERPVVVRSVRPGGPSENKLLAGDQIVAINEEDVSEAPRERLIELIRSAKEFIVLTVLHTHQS
# Sequence of PDLIM1, O00151 (O00151 1-87): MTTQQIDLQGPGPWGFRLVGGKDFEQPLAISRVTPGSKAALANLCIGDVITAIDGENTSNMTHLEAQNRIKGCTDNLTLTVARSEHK
# Sequence of MAGI2_3, Q86UL8 (Q86UL8 600-682): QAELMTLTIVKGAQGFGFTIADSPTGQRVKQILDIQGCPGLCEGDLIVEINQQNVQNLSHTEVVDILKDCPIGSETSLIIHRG
# Sequence of PTPN3, P26045 (P26045 505-587): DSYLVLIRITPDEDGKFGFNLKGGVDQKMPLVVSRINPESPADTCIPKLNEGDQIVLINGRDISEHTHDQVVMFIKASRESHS
# Sequence of LNX1_3, Q8TBB1 (Q8TBB1 500-596): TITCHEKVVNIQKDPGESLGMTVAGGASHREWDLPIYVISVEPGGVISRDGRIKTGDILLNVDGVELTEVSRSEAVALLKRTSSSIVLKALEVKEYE
# Sequence of FRMPD4, Q14CM0 (Q14CM0 67-160): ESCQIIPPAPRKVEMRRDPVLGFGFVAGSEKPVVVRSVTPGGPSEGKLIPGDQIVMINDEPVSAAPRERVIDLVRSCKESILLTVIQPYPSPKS
# Sequence of Inadl_6, Q8NI35 (Q8NI35 1058-1167): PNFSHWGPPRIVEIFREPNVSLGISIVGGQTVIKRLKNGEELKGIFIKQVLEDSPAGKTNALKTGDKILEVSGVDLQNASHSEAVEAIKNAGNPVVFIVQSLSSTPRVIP
# Sequence of NOS1, P29475 (P29475 9-101): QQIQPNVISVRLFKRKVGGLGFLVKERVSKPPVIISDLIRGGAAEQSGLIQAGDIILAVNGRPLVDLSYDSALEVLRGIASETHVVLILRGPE
pKd [1],pKd [2],pKd [3],pKd [4],pKd [5],pKd [6],pKd [7],pKd [8],pKd [9],pKd [10],pKd [11],pKd [12],pKd [13],pKd [14],pKd [15],pKd [16],pKd [17],pKd [18],pKd [19],pKd [20],Binder,further results
below the threshold,below the threshold,below the threshold,4.3,below the threshold,below the threshold,below the threshold,below the threshold,below the threshold,below the threshold,below the threshold,below the threshold,below the threshold,below the threshold,below the threshold,below the threshold,below the threshold,below the threshold,below the threshold,below the threshold,"LCKSHAFSHV [PDLIM7, Q9NR12;Q9NR12-1]",pKd [21]: below the threshold; pKd [22]: below the threshold; pKd [23]: below the threshold; pKd [24]: below the threshold
3.85,below the threshold,3.5,4.6,below the threshold,below the threshold,below the threshold,below the threshold,below the threshold,below the threshold,below the threshold,below the threshold,below the threshold,3.58,below the threshold,below the threshold,below the threshold,below the threshold,below the threshold,4.16,"KKNKDKEYYV [NRXN1, Q9ULB1]",pKd [25]: 3.62; pKd [26]: 3.57; pKd [21]: below the threshold; pKd [22]: below the threshold; pKd [23]: below the threshold; pKd [27]: below the threshold; pKd [24]: below the threshold
